The nature of the experiment: Screening mutant/fluorophore combinations for a fluorescence response to ADP. The note with it: ParM mutant/fluorophore combination.

The values that follow come from patent US8703913B2, “Sensor” (Medical Research Council, priority 2008, dated 2014).

Changes are numbered by the printed parent chain. Numbers in names are those of the source.

B1: 5-IATR-ParM (WT): wild-type ParM labeled with 5-IATR (conjugate, UniProt P11904 1-320, looked up)
Plasmid segregation protein …: MLVFIDDGSTNIKLQWQESDGTIKQHISPNSFKREWAVSFGDKKVFNYTLNGEQYSFDPISPDAVVTTNIAWQYSDVNVVAVHHALLTSGLPVSEVDIVCTLPLTEYYDRNNQPNTENIERKKANFRKKITLNGGDTFTIKDVKVMPESIPAGYEVLQELDELDSLLIIDLGGTTLDISQVMGKLSGISKIYGDSSLGVSLVTSAVKDALSLARTKGSSYLADDIIIHRKDNNYLKQRINDENKISIVTEAMNEALRKLEQRVLNTLNEFSGYTHVMVIGGGAELICDAVKKHTQIRDERFFKTNNSQYDLVNGMYLIGN
modifications: 5-IATR label
In the case of B1, the “Fluorescence change, ratio of the intensity in presence of 1 mM ADP to that in the absence of ADP” value (from here on “Fluorescence change, ratio”) worked out at 0.74.

B2: 5-IATR-ParM (I27C) (conjugate, UniProt P11904 1-320, looked up, variant I27C)
Plasmid segregation protein …: B1 Plasmid segregation protein … with I27C
modifications: 5-IATR rhodamine label
Turning to B2, the “Fluorescence change, ratio” value was 1.3.

B3: IDCC-ParM (D58C): ParM D58C/C287A labeled with IDCC (conjugate, UniProt P11904 1-320, looked up, variant D58C C287A)
Plasmid segregation protein …: B1 Plasmid segregation protein … with D58C, C287A
modifications: IDCC label
Take B3: the “Fluorescence change, ratio” value turned out to be 0.93.

B4: Alexa 488-ParM (I27C): ParM I27C/C287A labeled with AlexaFluor-488-maleimide (conjugate, UniProt P11904 1-320, looked up, variant I27C C287A)
Plasmid segregation protein …: B1 Plasmid segregation protein … with I27C, C287A
modifications: Alexa Fluor 488 label
Regarding B4, the “Fluorescence change, ratio” value came out at 0.78.

B5: MDCC-ParM (WT): wild-type ParM labeled with MDCC (conjugate, UniProt P11904 1-320, looked up)
Plasmid segregation protein …: B1 Plasmid segregation protein …
modifications: MDCC label
For the molecule B5, the “Fluorescence change, ratio” value is on record as 0.27.

B6: Cy3-ParM (I27C): ParM I27C/C287A labeled with Cy3-maleimide (conjugate, UniProt P11904 1-320, looked up, variant I27C C287A)
Plasmid segregation protein …: B1 Plasmid segregation protein … with I27C, C287A
modifications: Cy3-maleimide label
With B6, the “Fluorescence change, ratio” value was found to be 1.2.

B7: 5-IATR-ParM (D58C) (conjugate, UniProt P11904 1-320, looked up, variant D58C)
Plasmid segregation protein …: B1 Plasmid segregation protein … with D58C
modifications: 5-IATR rhodamine label
Take B7: the “Fluorescence change, ratio” value stood at 0.83.

B8: 5-IATR-ParM (D63C) (conjugate, UniProt P11904 1-320, looked up, variant D63C)
Plasmid segregation protein …: B1 Plasmid segregation protein … with D63C
modifications: 5-IATR rhodamine label
On to B8, for which the “Fluorescence change, ratio” value came out at 0.80.

B9: MPrCC-ParM (I27C): ParM I27C/C287A labeled with MPrCC (conjugate, UniProt P11904 1-320, looked up, variant I27C C287A)
Plasmid segregation protein …: B1 Plasmid segregation protein … with I27C, C287A
modifications: MPrCC label
On to B9, for which the “Fluorescence change, ratio” value was determined as 1.1.

B10: MIANS-ParM (WT): wild-type ParM labeled with MIANS (conjugate, UniProt P11904 1-320, looked up)
Plasmid segregation protein …: B1 Plasmid segregation protein …
modifications: MIANS label
Take B10: the “Fluorescence change, ratio” value came out at 0.50.

B11: MDCC-ParM (D58C): ParM D58C/C287A labeled with MDCC (conjugate, UniProt P11904 1-320, looked up, variant D58C C287A)
Plasmid segregation protein …: B1 Plasmid segregation protein … with D58C, C287A
modifications: MDCC label
In the case of B11, the “Fluorescence change, ratio” value stood at 0.82.

B12: Acrylodan-ParM (WT): wild-type ParM labeled with acrylodan (conjugate, UniProt P11904 1-320, looked up)
Plasmid segregation protein …: B1 Plasmid segregation protein …
modifications: acrylodan label
With B12, the “Fluorescence change, ratio” value was found to be 0.59.

B13: MDCC-ParM (T215C): ParM T215C/C287A labeled with MDCC (conjugate, UniProt P11904 1-320, looked up, variant T215C C287A)
Plasmid segregation protein …: B1 Plasmid segregation protein … with T215C, C287A
modifications: MDCC label
On to B13, for which the “Fluorescence change, ratio” value worked out at 0.74.

B14: MIANS-ParM (I27C): ParM I27C/C287A labeled with MIANS (conjugate, UniProt P11904 1-320, looked up, variant I27C C287A)
Plasmid segregation protein …: B1 Plasmid segregation protein … with I27C, C287A
modifications: MIANS label
B14: the “Fluorescence change, ratio” value came out at 0.72.

B15: MDCC-ParM (D63C): ParM D63C/C287A labeled with MDCC (conjugate, UniProt P11904 1-320, looked up, variant D63C C287A)
Plasmid segregation protein …: B1 Plasmid segregation protein … with D63C, C287A
modifications: MDCC label
B15: the “Fluorescence change, ratio” value stood at 0.48.

B16: MDCC-ParM (S204C): ParM S204C/C287A labeled with MDCC (conjugate, UniProt P11904 1-320, looked up, variant S204C C287A)
Plasmid segregation protein …: B1 Plasmid segregation protein … with S204C, C287A
modifications: MDCC label
As to B16, the “Fluorescence change, ratio” value came to 0.68.

B17: IDCC-ParM (I27C): ParM I27C/C287A labeled with IDCC (conjugate, UniProt P11904 1-320, looked up, variant I27C C287A)
Plasmid segregation protein …: B1 Plasmid segregation protein … with I27C, C287A
modifications: IDCC label
Regarding B17, the “Fluorescence change, ratio” value came out at 1.5.

B18: MIANS-ParM (S204C): ParM S204C/C287A labeled with MIANS (conjugate, UniProt P11904 1-320, looked up, variant S204C C287A)
Plasmid segregation protein …: B1 Plasmid segregation protein … with S204C, C287A
modifications: MIANS label
With B18, the “Fluorescence change, ratio” value amounted to 0.91.

B19: 6-IATR-ParM (WT): wild-type ParM labeled with 6-IATR (conjugate, UniProt P11904 1-320, looked up)
Plasmid segregation protein …: B1 Plasmid segregation protein …
modifications: 6-IATR label
Consider B19, for which the “Fluorescence change, ratio” value was found to be 0.70.

B20: MPrCC-ParM (T215C): ParM T215C/C287A labeled with MPrCC (conjugate, UniProt P11904 1-320, looked up, variant T215C C287A)
Plasmid segregation protein …: B1 Plasmid segregation protein … with T215C, C287A
modifications: MPrCC label
As to B20, the “Fluorescence change, ratio” value was 0.78.

B21: Cy3b-ParM (I27C): ParM I27C/C287A labeled with Cy3B-maleimide (conjugate, UniProt P11904 1-320, looked up, variant I27C C287A)
Plasmid segregation protein …: B1 Plasmid segregation protein … with I27C, C287A
modifications: Cy3B label
In the case of B21, the “Fluorescence change, ratio” value stood at 0.83.

B22: IDCC-ParM (WT): wild-type ParM labeled with IDCC (conjugate, UniProt P11904 1-320, looked up)
Plasmid segregation protein …: B1 Plasmid segregation protein …
modifications: IDCC label
Regarding B22, the “Fluorescence change, ratio” value is on record as 0.34.
